Experimental findings from the supplement of paper PMC10126150 are described below.

This data set has as its system ATP. The data set is described as follows: switch fluorescence ratio, 500 uM ATP over buffer (Cy3 cluster intensity, sum of 5 cycles each) (fold (ratio)); higher = stronger signal-on switching upon ATP binding; sequences stand for … in TCGTCGGCAGCGTCAGATGTGTATAAGAGACAGTTTTTTTTTTTTTTTTTTTTTTTTT…TC. The conditions noted are these: aptamer strand: ATP DNA aptamer (quencher-CACCTGGGGGAGTATTGCGGAGGAAGG + anchor), 100 nM annealed; ATP concentration: 500 uM. The method, boiled down: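 The fluorescence ratio divides summed target-cycle Cy3 intensity by summed buffer-cycle Cy3 intensity for each cluster and is averaged per switch-domain sequence. Cy3-labelled switching-strand clusters on a modified Illumina MiSeq flow-cell were annealed to 100 nM quencher-labelled ATP aptamer, then imaged in selection buffer and again after 15 min with 500 uM ATP at 22 °C. Five such cycles were run, with NaOH stripping and re-annealing between them, and clusters outside 100-1000 RFU were excluded.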

± gives the standard deviation of the averaged measurements.
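Note: ATP exposure 15 min at 22 °C before imaging.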

As for TTGTGATCGG, the switch fluorescence ratio came out at 0.978 ± 0.03.

Regarding TTGTGATTTT, the switch fluorescence ratio turned out to be 1.02 ± 0.048.

With TTGTGGAACG, the switch fluorescence ratio turned out to be 0.989 ± 0.019.

Regarding TTGTGGAGAA, the switch fluorescence ratio turned out to be 1.04 ± 0.072.

Turning to TTGTGGATTA, the switch fluorescence ratio is 1 ± 0.027.

With TTGTGGCCGG, the switch fluorescence ratio was 0.978 ± 0.045.

Regarding TTGTGGCGGA, the switch fluorescence ratio is 1.0229 ± 0.00038.

Regarding TTGTGGCTGG, the switch fluorescence ratio was determined as 0.96 ± 0.035.

As for TTGTGGGGTC, the switch fluorescence ratio was 1 ± 0.036.

Take TTGTGGGTAT: the switch fluorescence ratio was determined as 0.954 ± 0.013.

As for TTGTGGGTTT, the switch fluorescence ratio worked out at 1.05 ± 0.2.

For the sequence TTGTGGTAAG, the switch fluorescence ratio is 0.992 ± 0.022.

Take TTGTGGTCCT: the switch fluorescence ratio came to 0.974 ± 0.029.

TTGTGGTCGG: the switch fluorescence ratio was 0.982 ± 0.036.

For TTGTGTAAGC, the switch fluorescence ratio came out at 1.01 ± 0.038.

In the case of TTGTGTAGCT, the switch fluorescence ratio was 1.02 ± 0.0057.

TTGTGTATTT: the switch fluorescence ratio was found to be 1.001 ± 0.0098.

Turning to TTGTGTCGCT, the switch fluorescence ratio turned out to be 1.0031 ± 0.0004.

TTGTGTGGGA: the switch fluorescence ratio is 1.02 ± 0.026.

Consider TTGTGTGGGG, for which the switch fluorescence ratio was found to be 1.01 ± 0.034.

For TTGTGTTTGT, the switch fluorescence ratio worked out at 1 ± 0.03.

For the sequence TTGTTAAGGC, the switch fluorescence ratio is 1.02 ± 0.037.

As to TTGTTAATCG, the switch fluorescence ratio came out at 0.984 ± 0.011.

With TTGTTAGTCA, the switch fluorescence ratio stood at 1.0317 ± 4.4e-05.

Take TTGTTAGTTA: the switch fluorescence ratio was determined as 1.01 ± 0.015.

Take TTGTTATCGG: the switch fluorescence ratio was determined as 1.04 ± 0.04.

Regarding TTGTTATGCG, the switch fluorescence ratio stood at 0.995 ± 0.012.

For the sequence TTGTTATGGC, the switch fluorescence ratio worked out at 0.9795 ± 0.0059.

Turning to TTGTTATGGT, the switch fluorescence ratio came to 1 ± 0.025.

In the case of TTGTTATTTA, the switch fluorescence ratio stood at 0.9903 ± 0.0019.

On to TTGTTCCAAT, for which the switch fluorescence ratio stood at 0.989 ± 0.012.

As for TTGTTCGGAG, the switch fluorescence ratio worked out at 1.0006 ± 0.00036.

In the case of TTGTTCGGTT, the switch fluorescence ratio was found to be 0.998 ± 0.024.

As to TTGTTCTTTT, the switch fluorescence ratio turned out to be 1.07 ± 0.077.

Regarding TTGTTGAATT, the switch fluorescence ratio is 0.98 ± 0.042.

With TTGTTGATGC, the switch fluorescence ratio turned out to be 1.14 ± 0.021.

As for TTGTTGGCCG, the switch fluorescence ratio was found to be 0.9637 ± 0.0078.

For the sequence TTGTTTAAAA, the switch fluorescence ratio was 1.01 ± 0.049.

For the sequence TTGTTTAAAG, the switch fluorescence ratio is 0.9764 ± 0.0021.

For the sequence TTGTTTAACG, the switch fluorescence ratio is 0.99757 ± 0.00042.

In the case of TTGTTTACCC, the switch fluorescence ratio is 0.9713 ± 0.0036.

For TTGTTTATAA, the switch fluorescence ratio came out at 1.02 ± 0.083.

For the sequence TTGTTTATCA, the switch fluorescence ratio worked out at 0.9865 ± 0.0096.

In the case of TTGTTTCGTT, the switch fluorescence ratio was 0.9804 ± 0.0073.

In the case of TTGTTTCTCT, the switch fluorescence ratio was 0.959 ± 0.016.

With TTGTTTGATG, the switch fluorescence ratio was determined as 1.01 ± 0.011.

Regarding TTGTTTGCGA, the switch fluorescence ratio turned out to be 0.999 ± 0.01.

As to TTGTTTGGAT, the switch fluorescence ratio worked out at 1.01 ± 0.05.

For the sequence TTGTTTGGCA, the switch fluorescence ratio was determined as 0.991 ± 0.025.

On to TTGTTTGTAG, for which the switch fluorescence ratio worked out at 1.03 ± 0.052.

For TTGTTTGTTT, the switch fluorescence ratio was 0.997 ± 0.035.

On to TTGTTTTCCG, for which the switch fluorescence ratio amounted to 1.02 ± 0.014.

With TTGTTTTCGC, the switch fluorescence ratio was 1.04 ± 0.046.

As to TTGTTTTGAG, the switch fluorescence ratio is 0.994 ± 0.013.

For TTGTTTTGTA, the switch fluorescence ratio came out at 0.992 ± 0.024.

As for TTGTTTTTAT, the switch fluorescence ratio amounted to 0.992 ± 0.03.

With TTTAAAACTT, the switch fluorescence ratio amounted to 2.03 ± 1.4.

As to TTTAAAAGCT, the switch fluorescence ratio amounted to 1.07 ± 0.038.

Take TTTAAAAGGC: the switch fluorescence ratio is 1.01 ± 0.028.

Consider TTTAAAAGTC, for which the switch fluorescence ratio came out at 1.07 ± 0.086.

Turning to TTTAAAATGT, the switch fluorescence ratio worked out at 1.12 ± 0.25.

TTTAAAATTA: the switch fluorescence ratio was 0.9978 ± 0.0042.

Consider TTTAAAATTT, for which the switch fluorescence ratio was determined as 1.01 ± 0.041.

In the case of TTTAAACGGT, the switch fluorescence ratio turned out to be 1.03 ± 0.042.

Regarding TTTAAAGA, the switch fluorescence ratio turned out to be 0.991 ± 0.01.

For TTTAAAGCGC, the switch fluorescence ratio worked out at 1.02 ± 0.043.

As to TTTAAAGCTT, the switch fluorescence ratio was determined as 1.01 ± 0.032.

As to TTTAAATAGC, the switch fluorescence ratio turned out to be 0.9742 ± 0.00053.

For the sequence TTTAAATTG, the switch fluorescence ratio came out at 1 ± 0.05.

Consider TTTAAATTTG, for which the switch fluorescence ratio turned out to be 1.018 ± 0.0054.

Take TTTAACAGGT: the switch fluorescence ratio is 1.03 ± 0.023.

Consider TTTAACATCA, for which the switch fluorescence ratio amounted to 0.984 ± 0.047.

Regarding TTTAACTAGC, the switch fluorescence ratio was determined as 1.034 ± 0.0063.

Regarding TTTAAGACAC, the switch fluorescence ratio was found to be 1.03 ± 0.022.

As for TTTAAGAGCT, the switch fluorescence ratio worked out at 0.997 ± 0.015.

In the case of TTTAAGCACG, the switch fluorescence ratio worked out at 1.09 ± 0.041.

TTTAAGCGAT: the switch fluorescence ratio came to 1.03 ± 0.015.

Take TTTAAGCTGG: the switch fluorescence ratio amounted to 0.99 ± 0.017.

Consider TTTAAGGAGG, for which the switch fluorescence ratio is 1.03 ± 0.071.

Consider TTTAAGGGGA, for which the switch fluorescence ratio came to 0.996 ± 0.013.

For the sequence TTTAAGGTAG, the switch fluorescence ratio came out at 0.993 ± 0.018.

With TTTAAGGTAT, the switch fluorescence ratio worked out at 0.957 ± 0.023.

For TTTAAGGTTT, the switch fluorescence ratio stood at 0.998 ± 0.013.

For the sequence TTTAAGTCGT, the switch fluorescence ratio turned out to be 0.974 ± 0.025.

Turning to TTTAAGTGGG, the switch fluorescence ratio turned out to be 1.04 ± 0.14.

Turning to TTTAAGTTGG, the switch fluorescence ratio came out at 0.983 ± 0.013.

With TTTAATGAGC, the switch fluorescence ratio was 0.995 ± 0.014.

Take TTTAATGCG: the switch fluorescence ratio is 1.01 ± 0.025.

For TTTAATGGGG, the switch fluorescence ratio came out at 1.02 ± 0.035.

Regarding TTTAATGTGG, the switch fluorescence ratio came to 0.999 ± 0.03.

As to TTTAATTAT, the switch fluorescence ratio is 0.99 ± 0.034.

Take TTTAATTCGC: the switch fluorescence ratio is 1.1 ± 0.056.

For the sequence TTTAATTTA, the switch fluorescence ratio was 1.01 ± 0.012.

As to TTTACAGATT, the switch fluorescence ratio turned out to be 0.982 ± 0.023.

As to TTTACAGCAT, the switch fluorescence ratio was determined as 1.06 ± 0.14.

With TTTACAGTC, the switch fluorescence ratio was 1.01 ± 0.037.

With TTTACAGTGG, the switch fluorescence ratio was found to be 1.05 ± 0.057.

As to TTTACATTAT, the switch fluorescence ratio was 0.981 ± 0.058.

Regarding TTTACATTGG, the switch fluorescence ratio came to 1.01 ± 0.044.

Turning to TTTACCATTT, the switch fluorescence ratio turned out to be 1.024 ± 0.0018.

Consider TTTACGAAAT, for which the switch fluorescence ratio was 1.08 ± 0.12.

Regarding TTTACGAGGG, the switch fluorescence ratio is 0.977 ± 0.015.

TTTACGATTA: the switch fluorescence ratio worked out at 1.14 ± 0.067.

On to TTTACGGTGC, for which the switch fluorescence ratio stood at 1.25 ± 0.15.

TTTACGTAGG: the switch fluorescence ratio is 1 ± 0.024.

Turning to TTTACGTCCA, the switch fluorescence ratio stood at 1.1 ± 0.047.

Turning to TTTACGTGGA, the switch fluorescence ratio came out at 1.02 ± 0.028.

On to TTTACTATTG, for which the switch fluorescence ratio came out at 1.03 ± 0.03.

With TTTACTCGGC, the switch fluorescence ratio stood at 1.08 ± 0.16.

Regarding TTTACTGGGG, the switch fluorescence ratio amounted to 1.01 ± 0.023.

As to TTTACTTAGC, the switch fluorescence ratio is 1.04 ± 0.026.

For TTTACTTCTA, the switch fluorescence ratio stood at 1.05 ± 0.017.

As for TTTAGAAAGT, the switch fluorescence ratio stood at 1.028 ± 0.0052.

Consider TTTAGAACTC, for which the switch fluorescence ratio came out at 1.19 ± 0.3.

On to TTTAGAAGGT, for which the switch fluorescence ratio was 0.995 ± 0.026.

On to TTTAGAGAGT, for which the switch fluorescence ratio worked out at 1.01 ± 0.018.

Turning to TTTAGAGGGA, the switch fluorescence ratio was found to be 1.02 ± 0.019.

Take TTTAGAGGGT: the switch fluorescence ratio came out at 0.988 ± 0.013.

On to TTTAGATCAG, for which the switch fluorescence ratio turned out to be 1.03 ± 0.013.

With TTTAGATCGG, the switch fluorescence ratio is 1.01 ± 0.046.
